Results: publication PMC7755911 (Scientific Reports, 2020)

Key:
Conditions in all cases: both partners purified
[1] = molecular target: Biotinylated SARS-CoV-2 S protein RBD with a C-terminal AviTag (SARS-CoV-2, canonical (Wuhan-Hu-1) …, UniProt P0DTC2, biotinylated); test: BLI
[2] = molecular target: SARS-CoV-2 RBD (cross-reactivity experiments) (SARS-CoV-2, UniProt P0DTC2); test: ELISA
[3] = molecular target: T1, Horse radish peroxidase conjugated RBD (GenScript SARS-CoV-2 Neutralization Antibody Detection Kit) (SARS-CoV-2, UniProt P0DTC2); test: ELISA
T1 construct: source: bought: GenScript (kit L00847)

[4] = molecular target: SARS-CoV-2 Receptor Binding Domain (RBD) (SARS-CoV-2, UniProt P0DTC2); test: SPR

Row | Binder | binding result [1] | binding result [2] | binding result [3] | Kd [4]
1 | VHH72 (VHH) VHH: QVQLQESGGGLVQAGGSLRLSCAASGRTFSEYAMGWFRQAPGKEREFVATISWSGGSTYYTDSVKGRFTISRDNAKNTVYLQMNSLKPDDTAVYYCAAAGLGTVVSEWDYDYDYWGQGTQVTVSS | binds | – | – | –
2 | NIH-CoVnb-112 (VHH, also called lead nanobody candidate; anti-SARS-CoV-2 RBD nanobody; source: E. coli BL21 (DE3), periplasm by osmotic shock, purified (HisTrap, Superdex 75)) VHH: DVQLQESGGGLVQPGGSLRLSCAASGLTLDYYAIGWFRQAPGKEREGVSCISSSDGSTYYADSVKGRFTTSRDNAKNTVYLQMNSLKPEDTAVYYCAAVPSTYYSGTYYYTCHPGGMDYWGKGTQVTVSS | – | binds | binds | 2.1 nM
